What was measured:
[1] = test system: RAJI cells; assay: Jurkat NFAT-GFP assay, coculture with RAJI cells; format: cell-based, human
Experimental: (B) Induction of NFAT promoter driven GFP expression. The control vector- and SIR-expressing Jurkat-NFAT-GFP cocultured for 4-24 hours with the target antigen-expressing cell line (described above) and their ability to bind to the target antigen is assayed by measuring induction of GFP expression using Flow Cytometry. Cellular supernatant is collected and assayed for the induction of cytokines (e.g., IL2).
Jurkat NFAT-GFP Assay For Synthetic Immune Receptors. The Jurkat-NFAT-GFP cells are engineered in such a way that the IL-2 promoter, which carries NFAT binding sites, is cloned upstream of the GFP gene. These cells have been used to study signaling via TCR and CAR. The different SIRs were stably expressed in Jurkat NFAT-GFP cells by lentiviral mediated gene transfer, followed by selection with puromycin. The SIR-expressing Jurkat-NFAT-GFP cells were cocultured with the target cells at E:T ratio of approximately 1:2 for approximately 4 hours to 18 hours. When the interaction between SIRs and their target antigen results in activation of the NFAT pathway, GFP expression is induced.
Induction of GFP expression by coculturing of Jurkat-NFAT-GFP cells expressing different SIR constructs and the different target cells was studied essentially as described previously (Wu, Roybal, Puchner, Onuffer, & Lim, 2015). GFP expression was monitored by FACS analysis. […] In panel B, Jurkat cells expressing SIR targeting CDH6 (Clone ID: 051716-J05), CD276 (Clone ID: 050516-Q06) and Her2/neu (Clone ID: 050516-I03) were incubated with SKOV3 (top) and […] (middle and bottom) cells, respectively. […] The Jurkat-NFAT-GFP cells were engineered to express different SIRs targeting other antigens and the experiment repeated upon coculture with the target cells expressing their respective target antigen. The Jurkat-NFAT-GFP (parental) cells were used as control. […] The names of different SIRs, their SEQ ID NOs, component antigen binding domains and TCR chains can be determined by reference to Tables 7A-7H. A SIR is considered positive in the assay in case the SIR expressing Jurkat-NFAT-GFP cells show greater % GFP positive cells when cultured with the target cell line as compared to parental Jurkat-NFAT-GFP cells. […] The signs +/−, +, 2+ etc. after the name of the cell lines indicate the relative degree of positivity on the Jurkat-NFAT-GFP assay as measured by the % GFP positive cells after culture of the SIR expressing Jurkat-NFAT-GFP cells with that cell line.

[2] = FACS detection of CARs and SIRs by Myc and Protein L staining (cell surface expression); format: cell-based, human; details: staining with APC-conjugated Protein-L, Jurkat-NFAT-GFP cells
Experimental: FACS analysis. Mouse Anti-Human c-Myc APC-conjugated Monoclonal Antibody (Catalog #IC3696A) was from R&D Systems (Minneapolis, MN). Biotinylated protein L was purchased from GeneScript (Piscataway, NJ), reconstituted in phosphate buffered saline (PBS) at 1 mg/ml and stored at 4° C. Streptavidin-APC (SA1005) was purchased from ThermoFisher Scientific.
For detection of CARs and SIRs using Myc staining, 1×10^6 cells were harvested and washed three times with 3 ml of ice-cold 1×PBS containing 4% bovine serum albumin (BSA) wash buffer. After wash, cells were resuspended in 0.1 ml of the ice-cold wash buffer containing 10 μl of APC-conjugated Myc antibody and incubated in dark for 1 hour followed by two washings with ice cold wash buffer.
For detection of CARs and SIRs using Protein L staining, 1×10^6 cells were harvested and washed three times with 3 ml of ice-cold 1×PBS containing 4% bovine serum albumin (BSA) wash buffer. After wash, cells were resuspended in 0.1 ml of the ice-cold wash buffer containing 1 μg of protein L at 4° C. for 1 hour. Cells were washed three times with ice-cold wash buffer, and then incubated (in the dark) with 10 μl of APC-conjugated streptavidin in 0.1 ml of the wash buffer for 30 minutes followed by two washings with ice cold wash buffer. FACS was done using FACSVerse analyzer from BD Biosciences.

[3] = GFP expression upon 18 hour co-culture with RAJI cells, Table 10B

Molecule	NFAT-GFP (%) [1, 3] [%]	Prt-L-APC (%) [2] [%]	NFAT-GFP (%) ([1]; overnight co-culture with RAJI cells, Table 10C)
10492 (protein) MALPVTALLLPLALLLHAARPDVVMTQSPSSLSASVGDRVTITCRASQDISKYLNWYQQKPGKAPKLLIYHTSRLHSGVPSRFSGSGSGTDFTLTISSLQPEDFATYYCQQGNTLPYTFGGGTKVEIKLEDLKNVFPPEVAVFCPSEAEISHTQKATLVCLATGFYPDHVELSWWVNGKEVHSGVSTDPQPLKEQPALNDSRYCLSSRLRVSATFWQNPRNHFRCQVQFYGLSENDEWTQDRAKPVTQIVSAEAWGRADCGFTSESYQQGVLSATILYEILLGKATLYAVLVSALVLMAMVKRKDSRGRAKRSGSGATNFSLLKQAGDVEENPGPTSMDWIWRILFLVGAATGAHSFEQVQLQESGPGLVKPSQTLSLTCTVSGVSLPDYGVSWIRQPPGKGLEWIGVIWGSETTYYNSALKSRVLISVDTSKNQVSLKLSSVTAADTAVYYCARHYYYGGSYAMDYWGQGTTVTVSSTRIQNPDPAVYQLRDCKSSDKSVCLFTDFDSQTNVSQSKDSDVYITDKTVLDMRSMDFKSNSAVAWSNKSDFACANAFNNSIIPEDTFFPSPESSCDVKLVEKSFETDTNLNFQNLSVIGFRILLLKVAGFNLLMTLRLWSS	2.48	8	
10495 (protein) MALPVTALLLPLALLLHAARPDVVMTQSPSSLSASVGDRVTITCRASQDISKYLNWYQQKPGKAPKLLIYHTSRLHSGVPSRFSGSGSGTDFTLTISSLQPEDFATYYCQQGNTLPYTFGGGTKVEIKLEDLKNVFPPEVAVFEPCEAEISHTQKATLVCLATGFYPDHVELSWWVNGKEVHSGVSTDPQPLKEQPALNDSRYCLSSRLRVSATFWQNPRNHFRCQVQFYGLSENDEWTQDRAKPVTQIVSAEAWGRADCGFTSESYQQGVLSATILYEILLGKATLYAVLVSALVLMAMVKRKDSRGRAKRSGSGATNFSLLKQAGDVEENPGPTSMDWIWRILFLVGAATGAHSFEQVQLQESGPGLVKPSQTLSLTCTVSGVSLPDYGVSWIRQPPGKGLEWIGVIWGSETTYYNSALKSRVLISVDTSKNQVSLKLSSVTAADTAVYYCARHYYYGGSYAMDYWGQGTTVTVSSTRIQNPDPAVCQLRDSKSSDKSVCLFTDFDSQTNVSQSKDSDVYITDKTVLDMRSMDFKSNSAVAWSNKSDFACANAFNNSIIPEDTFFPSPESSCDVKLVEKSFETDTNLNFQNLSVIGFRILLLKVAGFNLLMTLRLWSS	1.99	0	
10494 (protein) MALPVTALLLPLALLLHAARPDVVMTQSPSSLSASVGDRVTITCRASQDISKYLNWYQQKPGKAPKLLIYHTSRLHSGVPSRFSGSGSGTDFTLTISSLQPEDFATYYCQQGNTLPYTFGGGTKVEIKLEDLKNVFPPEVAVFEPSEAEISHTQKATLVCLATGFYPDHVELSWWVNGKEVHSGVSTDPQPLKEQPALNDSRYCLCSRLRVSATFWQNPRNHFRCQVQFYGLSENDEWTQDRAKPVTQIVSAEAWGRADCGFTSESYQQGVLSATILYEILLGKATLYAVLVSALVLMAMVKRKDSRGRAKRSGSGATNFSLLKQAGDVEENPGPTSMDWIWRILFLVGAATGAHSFEQVQLQESGPGLVKPSQTLSLTCTVSGVSLPDYGVSWIRQPPGKGLEWIGVIWGSETTYYNSALKSRVLISVDTSKNQVSLKLSSVTAADTAVYYCARHYYYGGSYAMDYWGQGTTVTVSSTRIQNPDPAVYQLRDSKSSDKSVCLFTDFDSQTNVSQSKDSDVYICDKTVLDMRSMDFKSNSAVAWSNKSDFACANAFNNSIIPEDTFFPSPESSCDVKLVEKSFETDTNLNFQNLSVIGFRILLLKVAGFNLLMTLRLWSS	0.9	7	
10493 (protein) MALPVTALLLPLALLLHAARPDVVMTQSPSSLSASVGDRVTITCRASQDISKYLNWYQQKPGKAPKLLIYHTSRLHSGVPSRFSGSGSGTDFTLTISSLQPEDFATYYCQQGNTLPYTFGGGTKVEIKLEDLKNVFPPEVAVFEPSEAEISHTQKATLVCLATGFYPDHVELSWWVNGKEVHSGVSTCPQPLKEQPALNDSRYCLSSRLRVSATFWQNPRNHFRCQVQFYGLSENDEWTQDRAKPVTQIVSAEAWGRADCGFTSESYQQGVLSATILYEILLGKATLYAVLVSALVLMAMVKRKDSRGRAKRSGSGATNFSLLKQAGDVEENPGPTSMDWIWRILFLVGAATGAHSFEQVQLQESGPGLVKPSQTLSLTCTVSGVSLPDYGVSWIRQPPGKGLEWIGVIWGSETTYYNSALKSRVLISVDTSKNQVSLKLSSVTAADTAVYYCARHYYYGGSYAMDYWGQGTTVTVSSTRIQNPDPAVYQLRDSKSSDKSVCLFTDFDSQTNVSQSKDSDVYICDKTVLDMRSMDFKSNSAVAWSNKSDFACANAFNNSIIPEDTFFPSPESSCDVKLVEKSFETDTNLNFQNLSVIGFRILLLKVAGFNLLMTLRLWSS	1.35	9	
11240 (protein) MALPVTALLLPLALLLHAARPDIVMTQSPATLSLSPGERATLSCRSSKSLQNVNGNTYLYWFQQKPGQSPQLLIYRMSNLNSGVPDRFSGSGSGTEFTLTISSLEPEDFAVYYCMQHLEYPITFGAGTKLEIKLEEQKLISEEDLGSGEDLKNVFPPEVAVFEPSKAEIAHTQKATLVCLATGFYPDHVELSWWVNGKEVHSGVCTDPQPLKEQPALNDSRYCLSSRLRVSATFWQNPRNHFRCQVQFYGLSENDEWTQDRAKPVTQIVSAEAWGRADCGITSASYHQGVLSATILYEILLGKATLYAVLVSALVLMAMVKRKDSRGRAKRSGSGATNFSLLKQAGDVEENPGPTSMDWIWRILFLVGAATGAHSFEEVQLVESGGGLVKPGGSLKLSCAASGYTFTSYVMHWVRQAPGKGLEWIGYINPYNDGTKYNEKFQGRVTISSDKSISTAYMELSSLRSEDTAMYYCARGTYYYGTRVFDYWGQGTLVTVSSTREQKLISEEDLGSGIQNPDPAVYQLRDSKSSDKSVCLFTDFDSQTNVSQSKDSDVYITDKCVLDMRSMDFKSNSAVAWSNKSDFACANAFNNSIIPEDTFFPSSDVPCDVKLVEKSFETDTNLNFQNLSVIGFRILLLKVAGFNLLMTLRLWSSRAKRSGSGVKQTLNFDLLKLAGDVESNPGPSRGHMTEYKPTVRLATRDDVPRAVRTLAAAFADYPATRHTVDPDRHIERVTELQELFLTRVGLDIGKVWVADDGAAVAVWTTPESVEAGAVFAEIGPRMAELSGSRLAAQQQMEGLLAPHRPKEPAWFLATVGVSPDHQGKGLGSAVVLPGVEAAERAGVPAFLETSAPRNLPFYERLGFTVTADVEVPEGPRTWCMTRKPGA			31.59

— patent US12269859B2, “Synthetic immune receptors and methods of use thereof” (Angeles Therapeutics, Inc., priority 2016, dated 2025)
